Source: the supplement of paper PMC9112550, “Optimization of the antimicrobial peptide Bac7 by deep mutational scanning” (BMC Biology, 2022)

System: Escherichia coli TOP10
Experiment: shrunken log2 fold change of peptide-encoding DNA abundance (4.5 h post-induction vs induction); higher = less antimicrobial activity (less host growth inhibition)
Conditions: time post-induction: 4.5 h; library: site-saturation at positions 5, 18, 19, 20
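Note: peptides expressed intracellularly from a pBAD plasmid library in pooled LB shake-flask culture, induced with 0.3% L-arabinose, DNA abundance read by NGS, three biological replicates, DESeq2 with apeglm shrinkage.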

Sequence | shrunken log2 fold change
RRIRARPPRLPRPRPRPTWNPRP | 0.279
RRIRDRPPRLPRPRPRPTETPRP | -0.000924
RRIRMRPPRLPRPRPRPWDDPRP | 0.533
RRIRTRPPRLPRPRPRPKCKPRP | 0.0156
RRIRVRPPRLPRPRPRPDFSPRP | -0.373
RRIRQRPPRLPRPRPRPENHPRP | -0.176
RRIRIRPPRLPRPRPRPGVHPRP | 0.241
RRIRSRPPRLPRPRPRPIGKPRP | 0.0386
RRIRNRPPRLPRPRPRPNWCPRP | 0.23
RRIRSRPPRLPRPRPRPVIIPRP | -0.254
RRIRGRPPRLPRPRPRPLFTPRP | 0.572
RRIRQRPPRLPRPRPRPFEMPRP | -0.0512
RRIRSRPPRLPRPRPRPETFPRP | 0.0203
RRIRARPPRLPRPRPRPFDVPRP | -0.0821
RRIRYRPPRLPRPRPRPMRWPRP | 0.448
RRIRQRPPRLPRPRPRPDWLPRP | -0.102
RRIRQRPPRLPRPRPRPYKYPRP | -1.49
RRIRNRPPRLPRPRPRPGNQPRP | -0.00674
RRIRMRPPRLPRPRPRPNWCPRP | 0.0361
RRIRHRPPRLPRPRPRPTHCPRP | -0.000996
RRIRNRPPRLPRPRPRPFLNPRP | -0.392
RRIRSRPPRLPRPRPRPRLHPRP | 0.15
RRIRRRPPRLPRPRPRPIPPPRP | 0.452

Sequence | shrunken log2 fold change
RRIRHRPPRLPRPRPRPCLAPRP | -0.0627
RRIRQRPPRLPRPRPRPHQLPRP | 0.142
RRIRPRPPRLPRPRPRPVKFPRP | 0.184
RRIRHRPPRLPRPRPRPNTIPRP | -0.903
RRIRNRPPRLPRPRPRPYSYPRP | 0.000362
RRIRPRPPRLPRPRPRPDPSPRP | 0.265
RRIRRRPPRLPRPRPRPERYPRP | 0.00129
RRIRERPPRLPRPRPRPPSGPRP | 0.275
RRIRSRPPRLPRPRPRPIYQPRP | -0.158
RRIRNRPPRLPRPRPRPLYFPRP | -0.477
RRIRNRPPRLPRPRPRPLMCPRP | 0.141
RRIRYRPPRLPRPRPRPWSTPRP | -0.458
RRIRYRPPRLPRPRPRPDYPPRP | -0.14
RRIRWRPPRLPRPRPRPTSFPRP | -0.0166
RRIRQRPPRLPRPRPRPRGFPRP | 0.0677
RRIRKRPPRLPRPRPRPHSHPRP | 0.179
RRIRDRPPRLPRPRPRPLQYPRP | -0.373
RRIRSRPPRLPRPRPRPWPMPRP | -0.111
RRIRYRPPRLPRPRPRPWFVPRP | -0.271
RRIRSRPPRLPRPRPRPFSSPRP | -0.113
RRIRHRPPRLPRPRPRPSAWPRP | 0.373
RRIRERPPRLPRPRPRPYWRPRP | -0.0166
RRIRGRPPRLPRPRPRPNHSPRP | 0.195

Sequence | shrunken log2 fold change
RRIRLRPPRLPRPRPRPGEWPRP | -0.00947
RRIRNRPPRLPRPRPRPWRGPRP | 0.226
RRIRSRPPRLPRPRPRPMNCPRP | -0.0191
RRIRHRPPRLPRPRPRPLLHPRP | -0.238
RRIRGRPPRLPRPRPRPSWLPRP | 0.519
RRIRARPPRLPRPRPRPGAYPRP | 0.249
RRIRIRPPRLPRPRPRPVIRPRP | 0.00816
RRIRARPPRLPRPRPRPYHIPRP | -0.356
RRIRARPPRLPRPRPRPCTSPRP | 0.0117
RRIRDRPPRLPRPRPRPCLAPRP | 0.291
RRIRWRPPRLPRPRPRPKPTPRP | 0.0876
RRIRPRPPRLPRPRPRPCDKPRP | 0.0695
RRIRTRPPRLPRPRPRPYGRPRP | -0.27
RRIRCRPPRLPRPRPRPLWPPRP | 0.076
RRIRIRPPRLPRPRPRPQRNPRP | -0.188
RRIRQRPPRLPRPRPRPARVPRP | 0.109
RRIRNRPPRLPRPRPRPPDSPRP | 0.0377
RRIRHRPPRLPRPRPRPRMNPRP | -0.197
RRIRMRPPRLPRPRPRPQEMPRP | -0.0105
RRIRQRPPRLPRPRPRPIVQPRP | -0.0505
RRIRYRPPRLPRPRPRPFDPPRP | -0.199
RRIRIRPPRLPRPRPRPPPGPRP | 0.685
RRIRKRPPRLPRPRPRPLTGPRP | -0.0975

Sequence | shrunken log2 fold change
RRIRPRPPRLPRPRPRPCCTPRP | -0.12
RRIRKRPPRLPRPRPRPFLAPRP | 0.169
RRIRNRPPRLPRPRPRPNLWPRP | 0.315
RRIRNRPPRLPRPRPRPTPIPRP | 0.189
RRIRTRPPRLPRPRPRPLWQPRP | 0.0687
RRIRYRPPRLPRPRPRPIPPPRP | -0.171
RRIRTRPPRLPRPRPRPCTFPRP | -0.241
RRIRTRPPRLPRPRPRPEDAPRP | 0.0648
RRIRVRPPRLPRPRPRPWTAPRP | -0.12
RRIRDRPPRLPRPRPRPCTQPRP | 0.0408
RRIRLRPPRLPRPRPRPCRIPRP | -0.0656
RRIRTRPPRLPRPRPRPINSPRP | -0.875
RRIRWRPPRLPRPRPRPWEWPRP | -0.00895
RRIRSRPPRLPRPRPRPWARPRP | 0.0355
RRIRERPPRLPRPRPRPGQDPRP | -0.0237
RRIRTRPPRLPRPRPRPTYVPRP | -0.163
RRIRLRPPRLPRPRPRPLSDPRP | 0.0376
RRIRDRPPRLPRPRPRPHGKPRP | 0.0283
RRIRPRPPRLPRPRPRPWKGPRP | 0.0625
RRIRDRPPRLPRPRPRPATQPRP | 0.52
RRIRQRPPRLPRPRPRPKSEPRP | -0.0211
RRIRVRPPRLPRPRPRPSCMPRP | -0.136
